What was measured:
[1] = target: mCherry-LaM1 complex (llama); assay: ITC; 100 uM nanobody in the syringe into 10 uM mCherry (or 8.9 uM mCherry-LaM1 or mCherry-LaM3 complex) in the cell; 25 °C; one set of sites
[2] = target: mCherry-LaM3 complex (llama); assay: as above

B1: LaM8 (VHH)
VHH: QVQLVESGGGLVQAGGSLRLSCAVSGRPFSEYNLGWFRQAPGKEREFVARIRSSGTTVYTDSVKGRFSASRDNAKNMGYLQLNSLEPEDTAVYYCAMSRVDTDSPAFYDYWGQGTQVTVST
- Kd [1]: 54 nM
- dH [1]: -10.3 kcal/mol
- stoichiometry N [1]: 0.854 sites
- Kd [2]: 236 nM
- dH [2]: -9.99 kcal/mol
- stoichiometry N [2]: 0.799 sites
